Measurements reported in article doi:10.1101/2024.12.02.626348 (bioRxiv, 2024).

B1: GST-Arl4D (natural protein, human, UniProt P49703 1-201, looked up)
chain: MGNHLTEMAPTASSFLPHFQALHVVVIGLDSAGKTSLLYRLKFKEFVQSVPTKGFNTEKIRVPLGGSRGITFQVWDVGGQEKLRPLWRSYTRRTDGLVFVVDAAEAERLEEAKVELHRISRASDNQGVPVLVLANKQDQPGALSAAEVEKRLAVRELAAATLTHVQGCSAVDGLGLQQGLERLYEMILKRKKAARGGKKRR
B2: His-Arl4D (natural protein, human, UniProt P49703 1-201, looked up)
chain: B1 chain

What was measured:
Assay in all cases: pull-down
His-Erk1 = His-Erk1 (human, UniProt P27361 1-379)
GST-Erk1 = GST-Erk1 (human, UniProt P27361 1-379)
GST-Erk2 = GST-Erk2 (human, UniProt P28482 1-360)
Sequence of GST-Erk2 (P28482 whole entry): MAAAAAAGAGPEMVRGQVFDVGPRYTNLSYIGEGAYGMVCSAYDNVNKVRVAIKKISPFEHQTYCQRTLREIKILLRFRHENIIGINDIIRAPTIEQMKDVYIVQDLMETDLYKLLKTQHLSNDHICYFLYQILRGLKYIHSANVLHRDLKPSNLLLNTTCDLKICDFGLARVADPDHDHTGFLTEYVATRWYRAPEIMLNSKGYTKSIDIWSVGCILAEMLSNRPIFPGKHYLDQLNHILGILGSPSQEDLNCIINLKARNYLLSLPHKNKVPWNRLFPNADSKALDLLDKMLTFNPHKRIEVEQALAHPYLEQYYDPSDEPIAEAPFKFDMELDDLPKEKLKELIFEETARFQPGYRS

Sequence of His-Erk1 (P27361 whole entry): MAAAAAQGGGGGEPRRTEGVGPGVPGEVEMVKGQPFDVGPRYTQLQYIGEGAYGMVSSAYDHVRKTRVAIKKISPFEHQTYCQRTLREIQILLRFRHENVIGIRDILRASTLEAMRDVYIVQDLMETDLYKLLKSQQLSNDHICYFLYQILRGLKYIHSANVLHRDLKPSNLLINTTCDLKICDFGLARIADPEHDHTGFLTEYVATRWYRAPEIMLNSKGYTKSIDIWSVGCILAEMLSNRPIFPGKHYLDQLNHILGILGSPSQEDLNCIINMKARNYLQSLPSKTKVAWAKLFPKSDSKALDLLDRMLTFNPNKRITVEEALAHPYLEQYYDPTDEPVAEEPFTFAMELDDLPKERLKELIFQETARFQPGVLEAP
Sequence of GST-Erk1 (P27361 whole entry): as above

| Binder | binding result (His-Erk1) | binding result (GST-Erk1) | binding result (GST-Erk2) |
| --- | --- | --- | --- |
| B1 | binds |  |  |
| B2 |  | binds | binds |
